The target in test [1] is T1, human GFRα3 expressed with a C-terminal myc-myc-hexahistidine tag (human, UniProt O60609 32-374, biotinylated (sites not given) in ELISA format 2 and in the Octet cross-competition; not in SPR).
T1 construct: also called hGFRα3-mmh; hGFRα3-mmH
Briefly: SPR, Ab captured, 37C. The protocol: (§1) Antibodies were tested for binding to human GFRα3 expressed with either a C-terminal myc-myc-hexahistidine tag (hGFRα3-mmh; SEQ ID: 370, a C-terminal hFc tag (hGFRα3-hFc; SEQ ID:371), or a C-terminal mFc tag (hGFRα3-mFc; SEQ ID:372), as well as monkey GFRα3 expressed with a C-terminal myc-myc-hexahistidine tag (MfGFRα3-mmh; SEQ ID:373). Anti-GFRα3 antibodies were captured on either a goat anti-mouse IgG polyclonal antibody (GE Healthcare, #BR-1008-38) or a mouse anti-human IgG monoclonal antibody (GE Healthcare, #BR-1008-39) surface created through direct amine coupling to a Biacore CM5 sensor chip. Kinetic experiments were carried out using HBS-EP (10 mM HEPES, 150 mM NaCl, 3 mM EDTA, 0.05% Surfactant P20, at pH 7.4) or PBS buffer containing 0.05% v/v surfactant P20 as both the running buffer and the sample buffer. Binding to human GFRα3-mmh or monkey GFRα3-mmh was evaluated by injecting several concentrations ranging from 200 to 7.4 nM (3-fold dilutions) across the captured antibody surface. Binding to human GFRα3-mFc or human GFRα3-hFc was evaluated by injecting several concentrations ranging from 100 to 3.7 nM (3-fold dilutions) across the captured antibody surface. Antibody-antigen association was monitored for up to 4 minutes, while dissociation in buffer was monitored for up to 20 minutes. Kinetic association (kₐ) and dissociation (kd) rate constants were determined by processing and fitting the data to a 1:1 binding model using Scrubber 2.0c curve fitting software. Binding dissociation equilibrium constants (KD) and dissociative half-lives (t_{1/2}) were calculated from the kinetic rate constants as: KD (M)=kd/kₐ and t_{1/2} (min)=[ln 2/(60*kd)].
For orientation: Surface plasmon resonance follows binding to a sensor surface in real time, without labels.

For test [2], the target named is T2, human GFRα3 expressed with a C-terminal hFc tag (human).
T2 construct: also called hGFRα3-hFc
As to the kind of experiment: SPR, Ab captured, 37C. The protocol: as §1

Test [3] has as its target T3, monkey GFRα3 expressed with a C-terminal myc-myc-hexahistidine tag (monkey (Mf), UniProt O60609 32-374 (human entry), limits assumed).
T3 construct: also called MfGFRα3-mmh; MfGFRα3-mmH
T3 chain: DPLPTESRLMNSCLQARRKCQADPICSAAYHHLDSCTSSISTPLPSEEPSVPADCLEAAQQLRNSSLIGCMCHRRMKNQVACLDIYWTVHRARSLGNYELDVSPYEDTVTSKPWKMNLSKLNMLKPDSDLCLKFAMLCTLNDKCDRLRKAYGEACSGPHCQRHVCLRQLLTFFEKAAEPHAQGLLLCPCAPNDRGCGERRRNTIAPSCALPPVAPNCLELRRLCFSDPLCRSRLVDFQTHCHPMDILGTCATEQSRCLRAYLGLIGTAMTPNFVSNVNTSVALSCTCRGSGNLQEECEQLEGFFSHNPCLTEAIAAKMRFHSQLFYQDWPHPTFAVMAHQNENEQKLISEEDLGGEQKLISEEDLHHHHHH
Briefly: SPR, Ab captured, 37C. The protocol: as §1

For test [4], the target named is T1, human GFRα3 expressed with a C-terminal …. As to the kind of experiment: SPR, Ab captured, 25C. The protocol:
as §1

The target of test [5] is T2, human GFRα3 expressed with a C-terminal …. Briefly: SPR, Ab captured, 25C. As for the experimental part: as §1
Test [6] has as its target T3, monkey GFRα3 expressed with a …. Briefly: SPR, Ab captured, 25C. The protocol:
as §1

Experimental findings from patent US20140056903A1 (Regeneron, published 2014) are described below.

Broadly, the Kd is the free concentration of one partner at which half of the binding sites on the other are occupied at equilibrium, for simple one-to-one binding. Broadly, the koff is a measure of how fast the partners let go of each other. A word on the kon: it is a measure of how fast the partners come together.

B1: H1M2236N (antibody, V domains shown)
VH: EVQLLESGGNLVQPGGSLRLSCAASGFTFSSYAMTWVRQAPGKGLEWVSTISGSGTSTYYADSVKGRFTISRDNSRDTVFLQMNSLRAEDTAVYYCSKPSALRFLHWLCMDVWGQGTLVTVSS
VL: DIQMTQSPSSLSAFVGDRVTITCRASQDIRNYLDWFQQKPGKAPKSLIYAASNLQSGVPSRFGGSGSGTDFTLTINSLQPEDFVTYYCQQYNSYPPTFGGGTKVEIK
notes: chimeric, human variable and mouse constant domains (H1M)
Regarding B1, the Kd in test [1] was determined as 0.532 nM; in test [2] it was 0.061 nM; in test [3] it was 2.58 nM; in test [4], 0.275 nM; in test [5] it was 0.0137 nM; in test [6] it was 0.97 nM. Besides, the koff stood at 0.00055 s⁻¹ in test [1]; 9.65e-05 s⁻¹ in test [2]; 0.00112 s⁻¹ in test [3]; 0.000208 s⁻¹ in test [4]; 1.76e-05 s⁻¹ in test [5]; 0.000286 s⁻¹ in test [6]. In addition, the kon in test [1] turned out to be 1.03e+06 M⁻¹ s⁻¹; in test [2], 1.58e+06 M⁻¹ s⁻¹; in test [3] it was 434000 M⁻¹ s⁻¹; in test [4] it was 760000 M⁻¹ s⁻¹; in test [5] it was 1.28e+06 M⁻¹ s⁻¹; in test [6], 296000 M⁻¹ s⁻¹. For the same molecule, the t1/2 in test [1] is 21 min; in test [2], 120 min; in test [3], 10 min; in test [4], 56 min; in test [5], 11 h; in test [6], 40 min.

B2: H1M2243N (antibody, V domains shown)
VH: QVQLVQSGAEVKKPGASVKVSCKASGYTFTSYGIIWVRQAPGQGLEWMGWISGYNGNTNYTQNLQGRVTMTTDTSTTTAYMELRSLRSDDTAVYYCARWGIATRPYYYYGMDVWGQGTTVTVSS
VL: DIQMTQSPSSLSASVGDRVTITCRASQDITNYLAWFQQKPGKAPKSLIYAASSLQSGVPSKFSGSGSGTDFTLTISSLQPEDFATYYCQQYNSYPPTFGPGTKVDIK
notes: as for B1
B2: the dissociation constant (Kd) in test [1] was 4.35 nM; in test [2], 0.117 nM; in test [3], 54.7 nM; in test [4], 2.04 nM; in test [5], at most 0.0075 nM; in test [6], 10.2 nM. Moreover, the koff in test [1] is 0.000595 s⁻¹; in test [2] it was 2.18e-05 s⁻¹; in test [3], 0.00275 s⁻¹; in test [4], 0.000261 s⁻¹; in test [5], at most 1e-06 s⁻¹; in test [6], 0.000658 s⁻¹. Besides, the on-rate (kon) in test [1] stood at 137000 M⁻¹ s⁻¹; in test [2] it was 186000 M⁻¹ s⁻¹; in test [3], 50200 M⁻¹ s⁻¹; in test [4], 128000 M⁻¹ s⁻¹; in test [5], 134000 M⁻¹ s⁻¹; in test [6] it was 64600 M⁻¹ s⁻¹. Moreover, the t1/2 in test [1] was determined as 19 min; in test [2], 529 min; in test [3] it was 4 min; in test [4], 44 min; in test [5] it was 192 h; in test [6], 18 min.

B3: H2aM2234N (antibody, mouse IgG2, V domains shown)
VH: EVQLLESGGGLVQSGGSLRLSCAASGFSFNNYAMSWVRQAPGKGLEWVSFISGSGGSTYYADSVKGRFTISRDNSKNTLYLQMNSLRVEDTAVFYCAKDRYNYGTFFDYWGQGTLVTVSS
VL: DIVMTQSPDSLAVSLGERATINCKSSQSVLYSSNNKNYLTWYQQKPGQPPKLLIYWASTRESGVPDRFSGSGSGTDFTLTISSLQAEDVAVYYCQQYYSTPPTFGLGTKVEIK
notes: chimeric, mouse IgG2 Fc (H2M/H2aM); also called H2M2234N
As for B3, the dissociation constant (Kd) in test [1] was 3.43 nM; in test [2] it was 0.116 nM; in test [3], 4.91 nM; in test [4], 1.08 nM; in test [5], 0.101 nM; in test [6], 1.34 nM. For the same molecule, the koff in test [1] worked out at 0.00272 s⁻¹; in test [2], 0.000146 s⁻¹; in test [3], 0.00211 s⁻¹; in test [4] it was 0.000711 s⁻¹; in test [5] it was 9.6e-05 s⁻¹; in test [6] it was 0.000571 s⁻¹. The kon in test [1] was 793000 M⁻¹ s⁻¹; in test [2], 1.26e+06 M⁻¹ s⁻¹; in test [3], 429000 M⁻¹ s⁻¹; in test [4], 657000 M⁻¹ s⁻¹; in test [5], 950000 M⁻¹ s⁻¹; in test [6], 427000 M⁻¹ s⁻¹. The t1/2 was 4 min in test [1]; 79 min in test [2]; 5 min in test [3]; 16 min in test [4]; 2 h in test [5]; 20 min in test [6].

B4: H2aM2210N (antibody, mouse IgG2, V domains shown)
VH: EVQLLESGGGLVQPGGSLRVSCAASGFTFSTSAMSWVRQAPGKGLEWVSGISGIGGGSTYYADSVKGRFTISRDNSKNTLYLQMNSLRAEDTAVYFCAKFYKWNSYIFDLWGQGTMVTVSS
VL: EIVLTQSPDTLSLSPGERATLSCRASQSVSSSYFAWYQQKPGQAPRLLMYSASSRATGIPDRFSGSGSGTDFSLTISRLEPEDFAVYYCQQYGRSLTFGGGTKVEIK
notes: chimeric, mouse IgG2 Fc (H2M/H2aM); also called H2M2210N
Take B4: the Kd in test [1] came to 15.8 nM; in test [2], 0.242 nM; in test [3], 76.4 nM; in test [4], 12.8 nM; in test [5], 0.22 nM; in test [6] it was 28.9 nM. Moreover, the koff in test [1] stood at 0.00335 s⁻¹; in test [2], 7.66e-05 s⁻¹; in test [3], 0.00618 s⁻¹; in test [4] it was 0.000863 s⁻¹; in test [5], 3.69e-05 s⁻¹; in test [6] it was 0.0012 s⁻¹. In addition, the kon in test [1] turned out to be 212000 M⁻¹ s⁻¹; in test [2], 316000 M⁻¹ s⁻¹; in test [3] it was 80900 M⁻¹ s⁻¹; in test [4], 67300 M⁻¹ s⁻¹; in test [5], 168000 M⁻¹ s⁻¹; in test [6], 41600 M⁻¹ s⁻¹. The t1/2 in test [1] is 3 min; in test [2] it was 151 min; in test [3] it was 2 min; in test [4] it was 13 min; in test [5], 5.22 h; in test [6], 10 min.

B5: H1M2212N (antibody, V domains shown)
VH: EVQLLESGGGLVQPGGSLRLSCAASGFTFSSYAMSWVRQGPGKGLEWVSGISGSGGSTYNADSVKGRFTISRDNSKNTLYLQMNSLRAEDTAVYYCAKDSGTYWYYFDYWGQGILVTVSS
VL: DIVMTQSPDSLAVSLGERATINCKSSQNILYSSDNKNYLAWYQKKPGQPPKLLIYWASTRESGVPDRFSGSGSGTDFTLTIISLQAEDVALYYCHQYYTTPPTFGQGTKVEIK
notes: as for B1
As to B5, the Kd in test [1] was 0.297 nM; in test [2] it was 0.0413 nM; in test [3] it was 0.294 nM; in test [4], 0.197 nM; in test [5], 0.0128 nM; in test [6], 0.293 nM. Besides, the koff in test [1] was determined as 0.000303 s⁻¹; in test [2], 6.17e-05 s⁻¹; in test [3], 0.00026 s⁻¹; in test [4], 0.000158 s⁻¹; in test [5], 1.44e-05 s⁻¹; in test [6] it was 0.000112 s⁻¹. Moreover, the on-rate (kon) came out at 1.02e+06 M⁻¹ s⁻¹ in test [1]; 1.49e+06 M⁻¹ s⁻¹ in test [2]; 884000 M⁻¹ s⁻¹ in test [3]; 800000 M⁻¹ s⁻¹ in test [4]; 1.12e+06 M⁻¹ s⁻¹ in test [5]; 384000 M⁻¹ s⁻¹ in test [6]. Moreover, the t1/2 in test [1] was found to be 38 min; in test [2], 187 min; in test [3], 44 min; in test [4] it was 73 min; in test [5], 13.3 h; in test [6], 103 min.

B6: H1M2207N (antibody, V domains shown)
VH: EVQLVESGGGLVQPGRSLRLSCAASGFTFNDYAMHWVRQAPGKGLEWVSGISWNSGNIGYADSVKGRFTISRDNAKNSLYLQMNSLRAEDTALYFCARDTRMATRPFDYWGQGTLVTVSS
VL: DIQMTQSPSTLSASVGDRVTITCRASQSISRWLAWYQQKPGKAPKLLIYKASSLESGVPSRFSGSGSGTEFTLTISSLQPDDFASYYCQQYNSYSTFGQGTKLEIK
notes: as for B1
For B6, the Kd was 10.8 nM in test [1]; 0.531 nM in test [2]; 145 nM in test [3]; 16 nM in test [4]; 0.163 nM in test [5]; 97.2 nM in test [6]. In addition, the koff stood at 0.00144 s⁻¹ in test [1]; 0.000108 s⁻¹ in test [2]; 0.00663 s⁻¹ in test [3]; 0.0009 s⁻¹ in test [4]; 2.6e-05 s⁻¹ in test [5]; 0.00388 s⁻¹ in test [6]. Also, the kon came to 133000 M⁻¹ s⁻¹ in test [1]; 203000 M⁻¹ s⁻¹ in test [2]; 45800 M⁻¹ s⁻¹ in test [3]; 56100 M⁻¹ s⁻¹ in test [4]; 159000 M⁻¹ s⁻¹ in test [5]; 39900 M⁻¹ s⁻¹ in test [6]. Besides, the t1/2 stood at 8 min in test [1]; 107 min in test [2]; 2 min in test [3]; 13 min in test [4]; 7.4 h in test [5]; 3 min in test [6].
